Laboratory results: paper PMC3827224

Target: rhodamine-labelled fibronectin from human plasma (human)

Row | Substance | decrease of rhodamine-fibronectin incorporation into the extracellular matrix of HDF fibroblasts (fluorescence plate assay), 500 nM bead-immobilized peptide, after 12 and 24 hours [%]
1 | F1 functional upstream domain (FUD) peptide of Streptococcus pyogenes F1 (domain or fragment) | 80
2 | FnBPA-derived peptide containing fibronectin-binding repeats 1-11 (FnBR1-11) (domain or fragment) | 90
